The results in this text go back to paper PMC2717645.

This experiment has as its target taxol-stabilized microtubules (bovine brain tubulin) (bovine) (UniProt Q6B856). Briefly: co-sedimentation.

B1: recombinant LC1 (natural protein)
chain: MAKATTIKDAIRIFEERKSVVATEAEKVELHGMIPPIEKMDATLSTLKACKHLALSTNNIEKISSLSGMENLRILSLGRNLIKKIENLDAVADTLEELWISYNQIASLSGIEKLVNLRVLYMSNNKITNWGEIDKLAALDKLEDLLLAGNPLYNDYKENNATSEYRIEVVKRLPNLKKLDGMPVDVDEREQANVARGG
Molecule B1 gave a stoichiometry N (LC1 per tubulin monomer) of 1.06.
